# ± gives the standard deviation of the averaged measurements.
# Assay: total protein half-life in vivo (active degradation + dilution); higher = more stable protein
# [1] = E. coli NCM3722 delta-clpP delta-lon delta-hslV, growth: N-lim chemostat, doubling time 6 h
# [2] = E. coli NCM3722 delta-lon, growth: N-lim chemostat, doubling time 6 h
# [3] = wild type E. coli NCM3722, growth: C-lim chemostat, doubling time 6 h
# [4] = wild type E. coli NCM3722, growth: P-lim chemostat, doubling time 6 h
# [5] = E. coli NCM3722 delta-clpP, growth: N-lim chemostat, doubling time 6 h
# [6] = E. coli NCM3722 delta-hslV, growth: N-lim chemostat, doubling time 6 h
# [7] = E. coli NCM3722 delta-smpB, growth: N-lim chemostat, doubling time 6 h
# [8] = wild type E. coli NCM3722, growth: C-lim chemostat, doubling time 3 h
# [9] = wild type E. coli NCM3722, growth: C-lim chemostat, doubling time 12 h
# [10] = wild type E. coli NCM3722, growth: N-lim chemostat, doubling time 6 h
# [11] = wild type E. coli NCM3722, growth: P-lim chemostat, doubling time 12 h
# [12] = wild type E. coli NCM3722, growth: N-lim chemostat, doubling time 12 h
Sequence,total protein half-life in vivo [1] [h],total protein half-life in vivo [2] [h],total protein half-life in vivo [3] [h],total protein half-life in vivo [4] [h],total protein half-life in vivo [5] [h],total protein half-life in vivo [6] [h],total protein half-life in vivo [7] [h],total protein half-life in vivo [8] [h],total protein half-life in vivo [9] [h],total protein half-life in vivo [10] [h],total protein half-life in vivo [11] [h],total protein half-life in vivo [12] [h]
MLTTLIYRSHIRDDEPVKKIEEMVSIANRRNMQSDVTGILLFNGSHFFQLLEGPEEQVKMIYRAICQDPRHYNIVELLCDYAPARRFGKAGMELFDLRLHERDDVLQAVFDKGTSKFQLTYDDRALQFFRTFVLATEQSTYFEIPAEDSWLFIADGSDKELDSCALSPTINDHFAFHPIVDPLSRRIIAFEAIVQKNEDSPSAIAVGQRKDGEIYTADLKSKALAFTMAHALELGDKMISINLLPMTLVNEPDAVSFLLNEIKANALVPEQIIVEFTESEVISRFDEFAEAIKSLKAAGISVAIDHFGAGFAGLLLLSRFQPDRIKISQELITNVHKSGPRQAIIQAIIKCCTSLEIQVSAMGVATPEEWMWLESAGIEMFQGDLFAKAKLNGIPSIAWPEKK,5.85 ± 0.18,1.79 ± 0.32,2.73 ± 2.2,0.443,–,–,–,–,–,–,–,–
MLTVKQIEAAKPKEKPYRLLDGNGLYLYVPVSGKKVWQLRYKIDGKEKILTVGKYPLMTLQEARDKAWTARKDISVGIDPVKAKKASSNNNSFSAIYKEWYEHKKQVWSVGYATELAKMFDDDILPIIGGLEIQDIEPMQLLEVIRRFEDRGAMERANKARRRCGEVFRYAIVTGRAKYNPAPDLADAMKGYRKKNFPFLPADQIPAFNKALATFSGSIVSLIATKVLRYTALRTKELRSMLWKNVDFENRIITIDASVMKGRKIHVVPMSDQVVELLTTLSSITKPVSEFVFAGRNDKKKPICENAVLLVIKQIGYEGLESGHGFRHEFSTIMNEHEWPADAIEVQLAHANGGSVRGIYNHAQYLDKRREMMQWWADWLDEKVE,6.44 ± 2.1,5.37 ± 0.098,5.53 ± 0.077,5.34 ± 0.46,5.79 ± 0.58,5.96 ± 0.24,5.02 ± 0.39,3.123 ± 0.013,10.3 ± 0.26,5.503 ± 0.0091,10.8 ± 1.7,–
MLVSKKPMVLVILDGYGYREEQQDNAIFSAKTPVMDALWANRPHTLIDASGLEVGLPDRQMGNSEVGHVNLGAGRIVYQDLTRLDVEIKDRAFFANPVLTGAVDKAKNAGKAVHIMGLLSAGGVHSHEDHIMAMVELAAERGAEKIYLHAFLDGRDTPPRSAESSLKKFEEKFAALGKGRVASIIGRYYAMDRDNRWDRVEKAYDLLTLAQGEFQADTAVAGLQAAYARDENDEFVKATVIRAEGQPDAAMEDGDALIFMNFRADRAREITRAFVNADFDGFARKKVVNVDFVMLTEYAADIKTAVAYPPASLVNTFGEWMAKNDKTQLRISETEKYAHVTFFFNGGVEESFKGEDRILINSPKVATYDLQPEMSSAELTEKLVAAIKSGKYDTIICNYPNGDMVGHTGVMEAAVKAVEALDHCVEEVAKAVESVGGQLLITADHGNAEQMRDPATGQAHTAHTNLPVPLIYVGDKNVKAVEGGKLSDIAPTMLSLMGMEIPQEMTGKPLFIVE,5.19 ± 0.06,4.97 ± 0.22,5.58 ± 0.34,5.1 ± 0.24,5.05 ± 0.79,5.19 ± 0.44,4.458 ± 0.033,2.85 ± 0.1,10 ± 1.6,4.76 ± 0.1,10.35 ± 0.034,7.769 ± 0.048
MLYIFDLGNVIVDIDFNRVLGAWSDLTRIPLASLKKSFHMGEAFHQHERGEISDEAFAEALCHEMALPLSYEQFSHGWQAVFVALRPEVIAIMHKLREQGHRVVVLSNTNRLHTTFWPEEYPEIRDAADHIYLSQDLGMRKPEARIYQHVLQAEGFSPSDTVFFDDNADNIEGANQLGITSILVKDKTTIPDYFAKVLC [P0A8Y3],–,5 ± 0.69,6.31 ± 0.65,5.18 ± 0.06,5.75 ± 1.6,3.94 ± 0.21,4.212 ± 0.04,2.92 ± 0.13,9.46 ± 0.36,4.14 ± 0.74,9.4 ± 0.48,6.16 ± 0.12
MLYIFRLIITVIYSILVCVFGSIYCLFSPRNPKHVATFGHMFGRLAPLFGLKVECRKPTDAESYGNAIYIANHQNNYDMVTASNIVQPPTVTVGKKSLLWIPFFGQLYWLTGNLLIDRNNRTKAHGTIAEVVNHFKKRRISIWMFPEGTRSRGRGLLPFKTGAFHAAIAAGVPIIPVCVSTTSNKINLNRLHNGLVIVEMLPPIDVSQYGKDQVRELAAHCRSIMEQKIAELDKEVAEREAAGKV,5.89,–,6.42,6.42 ± 1.2,6.07 ± 0.43,–,4.95,–,–,5.93 ± 0.29,11.8 ± 0.39,12.2 ± 1.3
MMDLDNIPDTQTEAEELEEVVMGLIINSGQARSLAYAALKQAKQGDFAAAKAMMDQSRMALNEAHLVQTKLIEGDAGEGKMKVSLVLVHAQDHLMTSMLARELITELIELHEKLKA,4.73,–,1.82 ± 0.14,–,2.85 ± 0.031,–,–,1.44,2.66,–,–,–
MMDNMQTEAQPTRTRILNAAREIFSENGFHSASMKAICKSCAISPGTLYHHFISKEALIQAIILQDQERALARFREPIEGIHFVDYMVESIVSLTHEAFGQRALVVEIMAEGMRNPQVAAMLKNKHMTITEFVAQRMRDAQQKGEISPDINTAMTSRLLLDLTYGVLADIEAEDLAREASFAQGLRAMIGGILTAS [P0ACT6],6.37 ± 1.1,–,6.053 ± 0.026,4.64 ± 0.12,5.2 ± 0.53,4.39 ± 0.71,5.56 ± 0.51,3.36 ± 0.77,–,4.87 ± 0.49,10.3 ± 0.2,9.35 ± 0.28
MMEFILSHVEKGVMTLTLNRPERLNSFNDEMHAQLAECLKQVERDDTIRCLLLTGAGRGFCAGQDLNDRNVDPTGPAPDLGMSVERFYNPLVRRLAKLPKPVICAVNGVAAGAGATLALGGDIVIAARSAKFVMAFSKLGLIPDCGGTWLLPRVAGRARAMGLALLGNQLSAEQAHEWGMIWQVVDDETLADTAQQLARHLATQPTFGLGLIKQAINSAETNTLDTQLDLERDYQRLAGRSADYREGVSAFLAKRSPQFTGK,4.04,–,–,–,–,–,–,–,–,–,–,–
MMELMVVHPHIFWLSLGGLLLAAEMLGGNGYLLWSGVAAVITGLVVWLVPLGWEWQGVMFAILTLLAAWLWWKWLSRRVREQKHSDSHLNQRGQQLIGRRFVLESPLVNGRGHMRVGDSSWPVSASEDLGAGTHVEVIAIEGITLHIRAVSS [P0AAS3],6.35 ± 0.63,5.91,> 8,7.12,6.38 ± 0.81,5.57 ± 0.15,6.81,2.86,10.5 ± 1.8,6.42 ± 0.38,10.6 ± 0.41,11.1 ± 0.17
MMIRERIEEKLRAAFQPVFLEVVDESYRHNVPAGSESHFKVVLVSDRFTGERFLNRHRMIYSTLAEELSTTVHALALHTYTIKEWEGLQDTVFASPPCRGAGSIA [P0ABE2],3.71 ± 0.15,1.81 ± 0.13,2.52 ± 0.14,3.23,–,–,1.55,1.53 ± 0.071,3.32,1.99 ± 0.31,5.55 ± 0.6,3.19
MMKFKKCLLPVAMLASFTLAGCQSNADDHAADVYQTDQLNTKQETKTVNIISILPAKVAVDNSQNKRNAQAFGALIGAVAGGVIGHNVGSGSNSGTTAGAVGGGAVGAAAGSMVNDKTLVEGVSLTYKEGTKVYTSTQVGKECQFTTGLAVVITTTYNETRIQPNTKCPEKS,–,–,–,–,–,–,2.3,1.87,–,2.73,–,–
MMKKPVVIGLAVVVLAAVVAGGYWWYQSRQDNGLTLYGNVDIRTVNLSFRVGGRVESLAVDEGDAIKAGQVLGELDHKPYEIALMQAKAGVSVAQAQYDLMLAGYRNEEIAQAAAAVKQAQAAYDYAQNFYNRQQGLWKSRTISANDLENARSSRDQAQATLKSAQDKLRQYRSGNREQDIAQAKASLEQAQAQLAQAELNLQDSTLIAPSDGTLLTRAVEPGTVLNEGGTVFTVSLTRPVWVRAYVDERNLDQAQPGRKVLLYTDGRPDKPYHGQIGFVSPTAEFTPKTVETPDLRTDLVYRLRIVVTDADDALRQGMPVTVQFGDEAGHE,6.76 ± 0.87,6.47 ± 0.38,–,6.02 ± 0.17,–,6.75 ± 0.14,6.26 ± 0.13,3.39 ± 0.38,11.2 ± 1.9,6.2 ± 0.46,14.2 ± 0.91,13.54 ± 0.12
MMKMRWLSAAVMLTLYTSSSWAFSIDDVAKQAQSLAGKGYETPKSNLPSVFRDMKYADYQQIQFNHDKAYWNNLKTPFKLEFYHQGMYFDTPVKINEVTATAVKRIKYSPDYFTFGDVQHDKDTVKDLGFAGFKVLYPINSKDKNDEIVSMLGASYFRVIGAGQVYGLSARGLAIDTALPSGEEFPRFKEFWIERPKPTDKRLTIYALLDSPRATGAYKFVVMPGRDTVVDVQSKIYLRDKVGKLGVAPLTSMFLFGPNQPSPANNYRPELHDSNGLSIHAGNGEWIWRPLNNPKHLAVSSFSMENPQGFGLLQRGRDFSRFEDLDDRYDLRPSAWVTPKGEWGKGSVELVEIPTNDETNDNIVAYWTPDQLPEPGKEMNFKYTITFSRDEDKLHAPDNAWVQQTRRSTGDVKQSNLIRQPDGTIAFVVDFTGAEMKKLPEDTPVTAQTSIGDNGEIVESTVRYNPVTKGWRLVMRVKVKDAKKTTEMRAALVNADQTLSETWSYQLPANE,6.373 ± 0.046,6.34 ± 0.17,6.12 ± 0.11,6.37 ± 0.39,–,6.94 ± 1,5.91 ± 0.29,3.25 ± 0.11,12.4 ± 0.37,6.43 ± 0.094,12.9 ± 0.14,12.6 ± 0.2

# Reference: the supplement of paper PMC11246515
